Usually stoichiometry N stands for a count of units in the complex or per binding partner.

The target in assay [1] is wild-type CXCL8^1–72 (human). As to the kind of experiment: native MS; nanoESI-MS under non-denaturing conditions, 200 mM ammonium acetate; 5‒20 μM protein (methods; 2–7 μM in the results for the wild type); monomer to dimer.
For assay [2], the target named is trapped dimer (CXCL8^R26C) (human). The description is as above.
Assay [3] concerns the target CXC chemokine receptor 1 (CXCR1) (human) (UniProt P25024).

CXC chemokine receptor 1 (CXCR1) (human), sequence (P25024 whole entry): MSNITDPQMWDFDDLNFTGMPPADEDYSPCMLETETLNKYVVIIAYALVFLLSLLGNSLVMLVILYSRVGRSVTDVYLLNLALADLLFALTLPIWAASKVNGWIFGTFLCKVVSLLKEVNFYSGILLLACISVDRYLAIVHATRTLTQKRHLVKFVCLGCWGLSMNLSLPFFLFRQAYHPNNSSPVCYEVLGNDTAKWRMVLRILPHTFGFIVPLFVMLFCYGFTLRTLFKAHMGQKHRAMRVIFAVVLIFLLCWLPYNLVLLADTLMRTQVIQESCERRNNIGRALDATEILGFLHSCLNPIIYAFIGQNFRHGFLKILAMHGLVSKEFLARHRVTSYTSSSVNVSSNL

As for wild-type CXCL8^1–72 (ligand), the stoichiometry N in assay [1] was 2.

As for trapped dimer (CXCL8^R26C) (ligand), the stoichiometry N in assay [2] worked out at 2. For the same substance, in assay [3], the NanoBiT Gi1 dissociation assay in HEK293A cells; fold higher concentration needed than the trapped monomer (CXCL8^1–65) to elicit a response from CXCR1 was 32 fold and the NanoBiT Gi1 dissociation assay in HEK293A cells; fold higher concentration needed than the wild-type CXCL8 to elicit a response from CXCR1 is 85 fold.

(Values after paper PMC10336096.)
